Patent EP4628505A1 (Genor Biopharma Co., Ltd., dated 2025)
Substitutions are numbered along the chain they refer to.

T1: recombinant human CTLA-4 (human, UniProt P16410 36-161, limits assumed)
T1 construct: also called CTLA4 antigen
T1 sequence (looked up): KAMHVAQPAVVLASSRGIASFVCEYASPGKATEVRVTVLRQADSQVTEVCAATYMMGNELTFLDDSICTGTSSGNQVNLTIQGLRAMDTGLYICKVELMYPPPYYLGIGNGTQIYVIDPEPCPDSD

B1: GBD008-S019 (antibody, V domains shown)
VH: QVQLVESGGGLVQPGGSLTLSCAASGFTFSSYTMAWYRQAPGKEREVVAGISRSGGTTNYGDSVKGRFTISRDNAKNTVYLQMNSLKPEDTAVYYCRAVSDYWGQGTQVTVSS
notes: Heavy chain-only antibody (VHH-Fc), no light chain; also called GBD008-5019
B2: GBD008-hS019-4 (antibody, V domains shown)
VH: B1 VH with Q1E, V5L, T19R, A75S, V79L, K87R, P88A, Q108L
notes: Humanized heavy chain-only antibody (VHH-Fc), no light chain
B3: GBD008-hS005-3 (antibody, V domains shown)
VH: EVQLVESGGGLVQPGGSLRLSCAASGRTASSNAMAWVRQAPGKEREFVSAISATGGLTAYADSVKGRFTISRDNSKNTLYLQMNSLRAEDTAVYYCAVGRERWYLRHTENEYDYWGQGTLVTVSS
notes: as for B2
B4: GBD008-hS005-3-2 (antibody, V domains shown)
VH: B3 VH with V37F
notes: as for B2
B5: GBD008-S004 (antibody, V domains shown)
VH: EVQLVESGGGLVQAGGSLRLSCLASGRTFSSYDMGWFRQAPGKEREFVAAISWGGVNTYYADSVKGRFTISRDNAKNTVYLQMNSLKPEDTAVYYCARGSAPYSSSRSSAQETYAQWGQGTQVTVSS
notes: Heavy chain-only antibody (VHH-Fc), no light chain
B6: GBD008-hS004-5 (antibody, V domains shown)
VH: B5 VH with A14P, L23A, V79L, K87R, P88A, Q122L
notes: as for B2

biological target: T1, recombinant human CTLA-4; experiment: Octet (BLI), 1:1 binding model

| Binder | Kd [nM] | koff [s⁻¹] | kon [M⁻¹ s⁻¹] |
| --- | --- | --- | --- |
| B1 | 0.165 | 4.35e-05 | 263000 |
| B2 | 0.236 | 7.13e-05 | 302000 |
| B3 | 0.524 | 9.91e-05 | 189000 |
| B4 | 0.53 | 0.000114 | 214000 |
| B5 | 28.9 | 0.00501 | 173000 |
| B6 | 27.9 | 0.00671 | 241000 |

biological target: T2, mouse CTLA4 (Acro Biosystem, Catlog #CT4-M52H5) (mouse, UniProt P09793 36-161); experiment: ELISA, plate coated with 1 ug/ml mouse CTLA4
T2 construct: Bought protein

| Binder | binding result |
| --- | --- |
| B1 | no binding |
| B2 | no binding |
| B3 | no binding |
| B4 | no binding |
| B5 | no binding |
| B6 | no binding |
